According to publication PMC8055526:

What was measured:
sFlt-1 (Homo sapiens) = sFlt-1 (Homo sapiens) (UniProt P17948); details: cited from earlier work
human VEGF (human) [1] = target: human VEGF (human) (UniProt P15692)
human VEGF (human) [2] = target: human VEGF (human) (UniProt P15692); remark: listed apart in the source
mouse VEGF (mouse) = mouse VEGF (mouse) (UniProt Q00731)

UniProt P17948, sequence (P17948 27-1338): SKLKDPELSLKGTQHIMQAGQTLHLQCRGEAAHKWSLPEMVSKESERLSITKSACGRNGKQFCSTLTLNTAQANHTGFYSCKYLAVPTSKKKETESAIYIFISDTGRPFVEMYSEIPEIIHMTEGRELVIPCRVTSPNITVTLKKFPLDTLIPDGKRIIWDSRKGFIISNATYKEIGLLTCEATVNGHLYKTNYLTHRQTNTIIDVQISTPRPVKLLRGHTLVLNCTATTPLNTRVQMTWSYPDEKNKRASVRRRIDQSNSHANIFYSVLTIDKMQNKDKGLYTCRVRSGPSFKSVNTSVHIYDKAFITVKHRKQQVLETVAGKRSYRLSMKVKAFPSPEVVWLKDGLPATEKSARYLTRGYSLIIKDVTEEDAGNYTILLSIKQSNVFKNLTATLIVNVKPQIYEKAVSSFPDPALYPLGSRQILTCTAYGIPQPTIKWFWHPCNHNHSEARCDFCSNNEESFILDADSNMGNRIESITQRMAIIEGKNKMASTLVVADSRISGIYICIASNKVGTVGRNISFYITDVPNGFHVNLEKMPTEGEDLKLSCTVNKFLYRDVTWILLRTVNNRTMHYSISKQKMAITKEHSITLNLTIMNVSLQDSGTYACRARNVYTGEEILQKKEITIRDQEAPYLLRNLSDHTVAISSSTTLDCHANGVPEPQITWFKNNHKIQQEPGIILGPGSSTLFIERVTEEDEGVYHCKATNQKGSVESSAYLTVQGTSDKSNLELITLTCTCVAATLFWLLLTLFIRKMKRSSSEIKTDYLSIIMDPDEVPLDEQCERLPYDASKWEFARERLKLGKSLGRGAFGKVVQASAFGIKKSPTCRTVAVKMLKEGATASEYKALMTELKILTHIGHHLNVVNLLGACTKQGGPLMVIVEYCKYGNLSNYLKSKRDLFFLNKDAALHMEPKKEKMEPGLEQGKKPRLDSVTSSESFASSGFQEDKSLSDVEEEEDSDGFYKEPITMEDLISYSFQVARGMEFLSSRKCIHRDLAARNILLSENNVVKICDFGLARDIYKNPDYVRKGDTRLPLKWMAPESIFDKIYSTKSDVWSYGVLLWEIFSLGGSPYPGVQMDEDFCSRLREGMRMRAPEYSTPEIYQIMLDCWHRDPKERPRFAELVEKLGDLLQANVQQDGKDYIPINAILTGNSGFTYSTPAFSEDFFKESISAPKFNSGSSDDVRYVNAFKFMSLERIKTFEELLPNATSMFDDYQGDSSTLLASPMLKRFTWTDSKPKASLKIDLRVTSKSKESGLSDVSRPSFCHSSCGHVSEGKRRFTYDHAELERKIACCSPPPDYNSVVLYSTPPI

Molecule: VEGF (from UniProt P15692)
- Kd (sFlt-1 (Homo sapiens)): 0.03 nM

Molecule: human recombinant VEGFR-1/Flt-1 Fc chimera (from UniProt P17948-2 27-687) (Fc fusion)
- VEGFR-2 phosphorylation in HUVECs with human VEGF, human sFlt-1 and a 4-fold molar excess of the antibody 21B3 (no letters) (human VEGF (human) [1]): 85 % of maximum
- VEGFR-2 phosphorylation in HUVECs with VEGF, human sFlt-1 and 2 times to 4 times molar excess of the antibody 27H6 (human VEGF (human) [2]): 89 % of maximum

B1: mouse recombinant VEGFR-1/Flt-1 Fc chimera (Fc fusion)
chain: YGSGSKLKVPELSLKGTQHVMQAGQTLFLKCRGEAAHSWSLPTTVSQEDKRLSITPPSACGRDNRQFCSTLTLDTAQANHTGLYTCRYLPTSTSKKKKAESSIYIFVSDAGSPFIEMHTDIPKLVHMTEGRQLIIPCRVTSPNVTVTLKKFPFDTLTPDGQRITWDSRRGFIIANATYKEIGLLNCEATVNGHLYQTNYLTHRQTNTILDVQIRPPSPVRLLHGQTLVLNCTATTELNTRVQMSWNYPGKATKRASIRQRIDRSHSHNNVFHSVLKINNVESRDKGLYTCRVKSGSSFQSFNTSVHVYEKGFISVKHRKQPVQETTAGRRSYRLSMKVKAFPSPEIVWLKDGSPATLKSARYLVHGYSLIIKDVTTEDAGDYTILLGIKQSRLFKNLTATLIVNVKPQIYEKSVSSLPSPPLYPLGSRQVLTCTVYGIPRPTITWLWHPCHHNHSKERYDFCTENEESFILDPSSNLGNRIESISQRMTVIEGTNKTVSTLVVADSQTPGIYSCRAFNKIGTVERNIKFYVTDVPNGFHVSLEKMPAEGEDLKLSCVVNKFLYRDITWILLRTVNNRTMHHSISKQKMATTQDYSITLNLVIKNVSLEDSGTYACRARNIYTGEDILRKTEVLVRDSEAPHLLQNLSDYEVSISGSTTLDCQARGVPAPQITWFKNNHKIQQEPGIILGPGNSTLFIERVTEEDEGVYRCRATNQKGAVESAAYLTVQGTSDKSNLE
- VEGFR-2 phosphorylation in HUVECs with mouse VEGF, mouse sFlt-1 and a 10-fold molar excess of the antibody 21B3 (no letters) (mouse VEGF (mouse)): 85 % of maximum
